The Human Domainome abundance scans (Beltran et al. 2025)
± gives the uncertainty stated by the source.

B1: Calcium-binding protein 2, residues 155 to 219; numbered along this chain, Q9NPB3 (parent)
chain: RELRDAFREFDTNGDGRISVGELRAALKALLGERLSQREVDEILQDVDLNGDGLVDFEEFVRMMS

Variants of: B1
Test: abundance fitness (aPCA) (normalised: wild type 0, dead -1); higher = more abundant; growth selection in yeast, the domain comes from the species named
Details: Homo sapiens

Point of comparison: RELRDAFREFDTNGDGRISVGELRAALKMLLGERLSQREVDEILQDVDLNGDGLVDFEEFVRMMS, abundance fitness -0.049 ± 0.12. Against it:
- RELRDAFREFDTNGDGRISVGELRAAPKALLGERLSQREVDEILQDVDLNGDGLVDFEEFVRMMS — lower, -0.495 ± 0.081
- RELRDAFREFDTNGDGRISVGELRAAGKALLGERLSQREVDEILQDVDLNGDGLVDFEEFVRMMS — higher, 0.165 ± 0.052
- RELRDAFREFDTNGDGRISVGELRAASKALLGERLSQREVDEILQDVDLNGDGLVDFEEFVRMMS — higher, 0.161 ± 0.06
- RELRDAFREFDTNGDGRISVGELRAAQKALLGERLSQREVDEILQDVDLNGDGLVDFEEFVRMMS — within error, -0.095 ± 0.16
- RELRDAFREFDTNGDGRISVGELRAAMKALLGERLSQREVDEILQDVDLNGDGLVDFEEFVRMMS — within error, -0.025 ± 0.098
- RELRDAFREFDTNGDGRISVGELRAADKALLGERLSQREVDEILQDVDLNGDGLVDFEEFVRMMS — lower, -0.464 ± 0.14
- RELRDAFREFDTNGDGRISVGELRAAWKALLGERLSQREVDEILQDVDLNGDGLVDFEEFVRMMS — within error, -0.137 ± 0.094
- RELRDAFREFDTNGDGRISVGELRAAVKALLGERLSQREVDEILQDVDLNGDGLVDFEEFVRMMS — within error, 0.092 ± 0.068
- RELRDAFREFDTNGDGRISVGELRAAHKALLGERLSQREVDEILQDVDLNGDGLVDFEEFVRMMS — within error, -0.091 ± 0.15
- RELRDAFREFDTNGDGRISVGELRAAFKALLGERLSQREVDEILQDVDLNGDGLVDFEEFVRMMS — within error, 0.077 ± 0.083
- RELRDAFREFDTNGDGRISVGELRAALLALLGERLSQREVDEILQDVDLNGDGLVDFEEFVRMMS — within error, -0.07 ± 0.053
- RELRDAFREFDTNGDGRISVGELRAALFALLGERLSQREVDEILQDVDLNGDGLVDFEEFVRMMS — within error, -0.277 ± 0.27
- RELRDAFREFDTNGDGRISVGELRAALCALLGERLSQREVDEILQDVDLNGDGLVDFEEFVRMMS — within error, -0.01 ± 0.13
- RELRDAFREFDTNGDGRISVGELRAALAALLGERLSQREVDEILQDVDLNGDGLVDFEEFVRMMS — within error, 0.127 ± 0.31
- RELRDAFREFDTNGDGRISVGELRAALTALLGERLSQREVDEILQDVDLNGDGLVDFEEFVRMMS — within error, 0.002 ± 0.085
- RELRDAFREFDTNGDGRISVGELRAALNALLGERLSQREVDEILQDVDLNGDGLVDFEEFVRMMS — within error, -0.133 ± 0.17
- RELRDAFREFDTNGDGRISVGELRAALMALLGERLSQREVDEILQDVDLNGDGLVDFEEFVRMMS — within error, -0.051 ± 0.17
- RELRDAFREFDTNGDGRISVGELRAALGALLGERLSQREVDEILQDVDLNGDGLVDFEEFVRMMS — within error, -0.077 ± 0.064
- RELRDAFREFDTNGDGRISVGELRAALYALLGERLSQREVDEILQDVDLNGDGLVDFEEFVRMMS — within error, -0.216 ± 0.35
- RELRDAFREFDTNGDGRISVGELRAALVALLGERLSQREVDEILQDVDLNGDGLVDFEEFVRMMS — within error, 0.089 ± 0.07
- RELRDAFREFDTNGDGRISVGELRAALDALLGERLSQREVDEILQDVDLNGDGLVDFEEFVRMMS — within error, 0.068 ± 0.26
- RELRDAFREFDTNGDGRISVGELRAALIALLGERLSQREVDEILQDVDLNGDGLVDFEEFVRMMS — within error, 0.013 ± 0.1
- RELRDAFREFDTNGDGRISVGELRAALSALLGERLSQREVDEILQDVDLNGDGLVDFEEFVRMMS — within error, -0.017 ± 0.074
- RELRDAFREFDTNGDGRISVGELRAALKLLLGERLSQREVDEILQDVDLNGDGLVDFEEFVRMMS — within error, -0.051 ± 0.063
- RELRDAFREFDTNGDGRISVGELRAALKQLLGERLSQREVDEILQDVDLNGDGLVDFEEFVRMMS — within error, -0.04 ± 0.11
- RELRDAFREFDTNGDGRISVGELRAALKILLGERLSQREVDEILQDVDLNGDGLVDFEEFVRMMS — within error, -0.204 ± 0.21
- RELRDAFREFDTNGDGRISVGELRAALKELLGERLSQREVDEILQDVDLNGDGLVDFEEFVRMMS — within error, -0.096 ± 0.29
- RELRDAFREFDTNGDGRISVGELRAALKYLLGERLSQREVDEILQDVDLNGDGLVDFEEFVRMMS — within error, -0.214 ± 0.21
- RELRDAFREFDTNGDGRISVGELRAALKWLLGERLSQREVDEILQDVDLNGDGLVDFEEFVRMMS — within error, -0.034 ± 0.067
- RELRDAFREFDTNGDGRISVGELRAALKFLLGERLSQREVDEILQDVDLNGDGLVDFEEFVRMMS — within error, -0.208 ± 0.12
- RELRDAFREFDTNGDGRISVGELRAALKCLLGERLSQREVDEILQDVDLNGDGLVDFEEFVRMMS — within error, -0.31 ± 0.3
- RELRDAFREFDTNGDGRISVGELRAALKTLLGERLSQREVDEILQDVDLNGDGLVDFEEFVRMMS — within error, -0.023 ± 0.07
- RELRDAFREFDTNGDGRISVGELRAALKKLLGERLSQREVDEILQDVDLNGDGLVDFEEFVRMMS — within error, 0.066 ± 0.14
- RELRDAFREFDTNGDGRISVGELRAALKPLLGERLSQREVDEILQDVDLNGDGLVDFEEFVRMMS — lower, -0.497 ± 0.089
- RELRDAFREFDTNGDGRISVGELRAALKRLLGERLSQREVDEILQDVDLNGDGLVDFEEFVRMMS — within error, 0.047 ± 0.054
- RELRDAFREFDTNGDGRISVGELRAALKDLLGERLSQREVDEILQDVDLNGDGLVDFEEFVRMMS — within error, 0.063 ± 0.18
- RELRDAFREFDTNGDGRISVGELRAALKHLLGERLSQREVDEILQDVDLNGDGLVDFEEFVRMMS — within error, -0.149 ± 0.33
- RELRDAFREFDTNGDGRISVGELRAALKVLLGERLSQREVDEILQDVDLNGDGLVDFEEFVRMMS — lower, -0.27 ± 0.083
- RELRDAFREFDTNGDGRISVGELRAALKNLLGERLSQREVDEILQDVDLNGDGLVDFEEFVRMMS — within error, -0.438 ± 0.28
- RELRDAFREFDTNGDGRISVGELRAALKGLLGERLSQREVDEILQDVDLNGDGLVDFEEFVRMMS — within error, -0.135 ± 0.053
- RELRDAFREFDTNGDGRISVGELRAALKSLLGERLSQREVDEILQDVDLNGDGLVDFEEFVRMMS — within error, -0.02 ± 0.089
